Positions count from the first letter of the chain named. Names may count otherwise.
B1: human tPA containing the triple mutation P125R W253R R275S, 6xHis tag and linker at the N-terminus (enzyme)
chain: HHHHHHGSSYQVICRDEKTQMIYQQHQSWLRPVLRSNRVEYCWCNSGRAQCHSVPVKSCSEPRCFNGGTCQQALYFSDFVCQCPEGFAGKCCEIDTRATCYEDQGISYRGTWSTAESGAECTNWNSSALAQKRYSGRRPDAIRLGLGNHNYCRNPDRDSKPWCYVFKAGKYSSEFCSTPACSEGNSDCYFGNGSAYRGTHSLTESGASCLPWNSMILIGKVYTAQNPSAQALGLGKHNYCRNPDGDAKPWCHVLKNRRLTREYCDVPSCSTCGLRQYSQPQFSIKGGLFADIASHPWQAAIFAKHRRSPGERFLCGGILISSCWILSAAHCFQERFPPHHLTVILGRTYRVVPGEEEQKFEVEKYIVHKEFDDDTYDNDIALLQLKSDSSRCAQESSVVRTVCLPPADLQLPDWTECELSGYGKHEALSPFYSERLKEAHVRLYPSSRCTSQHLLNRTVTDNMLCAGDTRSGGPQANLHDACQGDSGGPLVCLNDGRMTLVGIISWGLGCGQKDVPGVYTKVTNYLDWIRDNMRP
B2: human tPA containing a tryptophan to arginine point mutation at position 253 (W253R), 6xHis tag and linker at the N-terminus (enzyme)
chain: B1 chain with R133P, S283R
B3: human tPA containing the double mutation W253R R275S, 6xHis tag and linker at the N-terminus (enzyme)
chain: B1 chain with R133P
B4: human single-chain tPA with arginine to serine point mutation at position 275 (R275S), 6xHis tag and linker at the N-terminus (enzyme)
chain: B1 chain with R133P, R261W
B5: rat single-chain tPA with arginine to serine point mutation at position 276 (R276S), 6xHis-tagged (enzyme)
chain: HHHHHHSYRATCRDEQTQTTYQQHQSWLRPMLRGNRVEYCRCNSGLAQCHSVPVRSCSEPRCFNGGTCQQALYFSDFVCQCPDGFVGKRCDIDTRATCFEGQGITYRGTWSTAENGAECINWNSSALSQKPYSARRPNAIKLGLGNHNYCRNPDRDVRPWCYVFKAGKYTTEFCSTPACPKGPTEDCYVGKGVTYRGTHSFTTSKASCLPWNSMILIGKTYTAWRANSQALGLGRHNYCRNPDGDAKPWCHVMKDRKLTWEYCDMSPCSTCGLRQYKQPLFSIKGGLFTDITSHPWQAAIFVKNKRSPGERFLCGGVLISSCWVLSAAHCFVERFPPHHLKVVLGRTYRVVPGEEEQTFEIEKYIVHKEFDDDTYDNDIALLQLRSDSSQCAQESSSVGTACLPDPDVQLPDWTECELSGYGKHEASSPFFSDRLKEAHVRLYPSSRCTSQHLFNKTITSNMLCAGDTRTGGNQDVHDACQGDSGGPLVCMIDKRMTLLGIISWGLGCGQKDVPGIYTKVTNYLNWIQDNMKQ
notes: Present only in its single-chain form; also called sc*-tPA; rat sc*-tPA
B6: rat tPA with tryptophan to arginine point mutation at position 254 (W254R), 6xHis-tagged (enzyme)
chain: B5 chain with W260R, S282R
notes: also called K2*-tPA; tPA W254R
B7: fibrin (other)
chain 1: GPRVVERHQSACKDSDWPFCSDEDWNYKCPSGCRMKGLIDEVNQDFTNRINKLKNSLFEYQKNNKDSHSLTTNIMEILRGDFSSANNRDNTYNRVSEDLRSRIEVLKRKVIEKVQHIQLLQKNVRAQLVDMKRLEVDIDIKIRSCRGSCSRALAREVDLKDYEDQQKQLEQVIAKDLLPSRDRQHLPLIKMKPVPDLVPGNFKSQLQKVPPEWKALTDMPQMRMELERPGGNEITRGGSTSYGTGSETESPRNPSSAGSWNSGSSGPGSTGNRNPGSSGTGGTATWKPGSSGPGSTGSWNSGSSGTGSTGNQNPGSPRPGSTGTWNPGSSERGSAGHWTSESSVSGSTGQWHSESGSFRPDSPGSGNARPNNPDWGTFEEVSGNVSPGTRREYHTEKLVTSKGDKELRTGKEKVTSGSTTTTRRSCSKTVTKTVIGPDGHKEVTKEVVTSEDGSDCPEAMDLGTLSGIGTLDGFRHRHPDEAAFFDTASTGKTFPGFFSPMLGEFVSETESRGSESGIFTNTKESSSHHPGIAEFPSRGKSSSYSKQFTSSTSYNRGDSTFESKSYKMADEAGSEADHEGTHSTKRGHAKSRPV
chain 2: GHRPLDKKREEAPSLRPAPPPISGGGYRARPAKAAATQKKVERKAPDAGGCLHADPDLGVLCPTGCQLQEALLQQERPIRNSVDELNNNVEAVSQTSSSSFQYMYLLKDLWQKRQKQVKDNENVVNEYSSELEKHQLYIDETVNSNIPTNLRVLRSILENLRSKIQKLESDVSAQMEYCRTPCTVSCNIPVVSGKECEEIIRKGGETSEMYLIQPDSSVKPYRVYCDMNTENGGWTVIQNRQDGSVDFGRKWDPYKQGFGNVATNTDGKNYCGLPGEYWLGNDKISQLTRMGPTELLIEMEDWKGDKVKAHYGGFTVQNEANKYQISVNKYRGTAGNALMDGASQLMGENRTMTIHNGMFFSTYDRDNDGWLTSDPRKQCSKEDGGGWWYNRCHAANPNGRYYWGGQYTWDMAKHGTDDGVVWMNWKGSWYSMRKMSMKIRPFFPQQ
chain 3: YVATRDNCCILDERFGSYCPTTCGIADFLSTYQTKVDKDLQSLEDILHQVENKTSEVKQLIKAIQLTYNPDESSKPNMIDAATLKSRKMLEEIMKYEASILTHDSSIRYLQEIYNSNNQKIVNLKEKVAQLEAQCQEPCKDTVQIHDITGKDCQDIANKGAKQSGLYFIKPLKANQQFLVYCEIDGSGNGWTVFQKRLDGSVDFKKNWIQYKEGFGHLSPTGTTEFWLGNEKIHLISTQSAIPYALRVELEDWNGRTSTADYAMFKVGPEADKYRLTYAYFAGGDAGDAFDGFDFGDDPSDKFFTSHNGMQFSTWDNDNDKFEGNCAEQDGSGWWMNKCHAGHLNGVYYQGGTYSKASTPNGYDNGIIWATWKTRWYSMKKTTMKIIPFNRLTIGEGQQHHLGGAKQVRPE

Legend:
[1] = biological target: N-methyl-D-aspartate receptor on primary cultured mouse cortical neurons (mouse, UniProt P35438 19-938); assay: cell-based or functional assay
fibrin = biological target: B7; assay: binding of tPA variants to a solid-phase fibrin surface on PVC plates (3 independent experiments, 12 doses)
[2] = biological target: T1, rat wild type tPA (Rattus norvegicus), 6xHis-tagged (rat, UniProt P19637 33-559); assay: as above
T1 construct: mature; Produced in HEK-293 cells and purified on Ni-NTA; also called wt-tPA; rat wt-tPA

| Binder | neuronal cell death (LDH release, cortical neurons, 0.3 uM) [1] | other results |
| --- | --- | --- |
| B1 | 51% |  |
| B2 | 64% |  |
| B3 | 62% |  |
| B4 | 62% |  |
| B5 |  | Kd (fibrin): 1.2 nM |
| B6 |  | Kd (fibrin): 0.5 nM |
| B7 |  | Kd [2]: 0.26 nM |

Source: patent publication US20140212406A1 (INSTITUT NATIONAL DE LA SANTE ET DE LA RECHERCHE MEDICALE …, published 2014)
